From US20210139582A1 (published 2021)

T1: C-terminus biotinylated monomeric human CD32a^H (FcγRIIa, histidine-131 variant), recombinant (human, UniProt P12318 34-218, limits assumed, C-terminus biotinylated (site-specific))
T1 construct: Captured on neutravidin (ELISA plates or CM5 chips); Bought reagent; also called CD32a-H131
T1 sequence (looked up): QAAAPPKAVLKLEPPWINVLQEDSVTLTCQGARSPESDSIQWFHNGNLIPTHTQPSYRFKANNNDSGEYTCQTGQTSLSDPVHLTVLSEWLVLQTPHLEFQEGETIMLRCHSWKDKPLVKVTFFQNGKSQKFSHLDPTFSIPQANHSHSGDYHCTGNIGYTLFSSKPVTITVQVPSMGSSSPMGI


Tests used:
[1] = target: T2, His-tagged soluble mouse FcRn (recombinant, insect cell produced) (mouse, UniProt Q61559 22-290); assay: method not stated; acidic pH
[2] = target: T2, His-tagged soluble mouse FcRn …; assay: method not stated; neutral pH
[3] = target: T1, C-terminus biotinylated monomeric human …; assay: SPR, estimated steady state KD, monomeric IgG, pH 7.4

T2 sequence (Q61559 22-290): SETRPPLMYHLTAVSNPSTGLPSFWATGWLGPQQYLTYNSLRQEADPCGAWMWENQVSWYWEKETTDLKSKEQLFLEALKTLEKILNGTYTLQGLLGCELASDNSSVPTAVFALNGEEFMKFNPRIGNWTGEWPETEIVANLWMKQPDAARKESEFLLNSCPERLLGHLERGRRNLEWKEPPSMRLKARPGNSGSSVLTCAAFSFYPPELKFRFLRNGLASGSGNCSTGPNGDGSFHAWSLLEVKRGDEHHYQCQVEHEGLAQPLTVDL

| Kd [1] | Kd [2] | Kd [3] | Binder |
| --- | --- | --- | --- |
| 1.2 nM | 7.4 nM | 2.8 µM | anti-NIP hIgG1-M252Y/S254T/T256E/H433K/N434F (hIgG1^MST/HN) (antibody) ASTKGPSVFPLAPSSKSTSGGTAALGCLVKDYFPEPVTVSWNSGALTSGVHTFPAVLQSSGLYSLSSVVTVPSSSLGTQTYICNVNHKPSNTKVDKKVEPKSCDKTHTCPPCPAPELLGGPSVFLFPPKPKDTLYITREPEVTCVVVDVSHEDPEVKFNWYVDGVEVHNAKTKPREEQYNSTYRVVSVLTVLHQDWLNGKEYKCKVSNKALPAPIEKTISKAKGQPREPQVYTLPPSRDELTKNQVSLTCLVKGFYPSDIAVEWESNGQPENNYKTTPPVLDSDGSFFLYSKLTVDKSRWQQGNVFSCSVMHEALKFHYTQKSLSLSPGK |
|  |  | 4.8 µM | anti-NIP hIgG1-I253A/H310A/H435A (hIgG1^IHH) (antibody) ASTKGPSVFPLAPSSKSTSGGTAALGCLVKDYFPEPVTVSWNSGALTSGVHTFPAVLQSSGLYSLSSVVTVPSSSLGTQTYICNVNHKPSNTKVDKKVEPKSCDKTHTCPPCPAPELLGGPSVFLFPPKPKDTLMASRTPEVTCVVVDVSHEDPEVKFNWYVDGVEVHNAKTKPREEQYNSTYRVVSVLTVLAQDWLNGKEYKCKVSNKALPAPIEKTISKAKGQPREPQVYTLPPSRDELTKNQVSLTCLVKGFYPSDIAVEWESNGQPENNYKTTPPVLDSDGSFFLYSKLTVDKSRWQQGNVFSCSVMHEALHNAYTQKSLSLSPGK |
